# Laboratory results: patent US20250257133A1 (ADAGENE PTE, published 2025)
# Substitutions are numbered along the chain they refer to. In names and notes the source's numbering stands.
# B1: TY24881 (antibody, human IgG4 S228P, kappa, V domains shown)
# VH: QVQLVQSGAEVKKPGSSVKVSCKASGFSLSTGGVGVTWIRQAPGQGLEWIGSIYHSGSTYYSPSLKSRVTITADKSTSTAYMELSSLRSEDTAVYYCARYDYGYYSFDVWGQGTLVTVSS
# VL: DIQLTQSPSSLSASVGDRVTITCRASQSVDFDAFSFLAWYQQKPGKAPKLLIYAASTLQSGVPSRFSGSGSGTDFTLTISSLQPEDFATYYCQQSYSASTFGQGTKVEIKR
# notes: hIgG4/S241P
# B2: TY24864 (antibody, human IgG4 S228P, kappa, V domains shown)
# VH: EVQLVESGGGLVQPGGSLRLSCAASGFSLSTSGVGVSWIRQAPGKGLEWIGAIYHSGSTYYSPSLKSRVTISRDNSKNTLYLQLNSLRAEDTAVYYCARYGYSYYAFDYWGQGTLVTVSS
# VL: DIQLTQSPSSLSASVGDRVTITCRASQTIGSFLNWYQQKPGKAPKLLIYDASSLESGVPSRFSGSGSGTDFTLTISSLQPEDFATYYCQQSYSYQTFGQGTKVEIKR
# notes: hIgG4/S241P
# B3: TY27566 (bispecific antibody, human IgG1, kappa, N297A)
# light: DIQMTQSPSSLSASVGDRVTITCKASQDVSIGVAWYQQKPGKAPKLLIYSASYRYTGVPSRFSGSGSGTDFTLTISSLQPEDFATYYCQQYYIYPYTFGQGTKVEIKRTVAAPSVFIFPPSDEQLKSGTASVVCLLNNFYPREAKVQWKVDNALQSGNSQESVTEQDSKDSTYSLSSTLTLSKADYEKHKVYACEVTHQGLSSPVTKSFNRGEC
# heavy: EVQLVESGGGLVQPGGSLRLSCAASGFTFTDYTMDWVRQAPGKGLEWVADVNPNSGGSIYNQRFKGRFTLSVDRSKNTLYLQMNSLRAEDTAVYYCARNLGPSFYFDYWGQGTLVTVSSASTKGPSVFPLAPSSKSTSGGTAALGCLVKDYFPEPVTVSWNSGALTSGVHTFPAVLQSSGLYSLSSVVTVPSSSLGTQTYICNVNHKPSNTKVDKKVEPKSCDKTHTCPPCPAPELLGGPSVFLFPPKPKDTLMISRTPEVTCVVVDVSHEDPEVKFNWYVDGVEVHNAKTKPREEQYASTYRVVSVLTVLHQDWLNGKEYKCKVSNKALPAPIEKTISKAKGQPREPQVYTLPPSRKKLTKNQVKLTCLVKGFYPSDIAVEWESNGQPENNYKTTPPVLDCDGSFFLYSKLTVDKSRWQQGNVFSCSVMHEALHNHYTQKSLSLSPGK
# chain: DIQLTQSPSSLSASVGDRVTITCRASQSVDFHGISFLHWYQQKPGKAPKLLIYAASSLQSGVPSRFSGSGSGTDFTLTISSLQPEDFATYYCQQSYRSPRTFGQGTKVEIKGGGGSGGGGSGGGGSGGGGSEVQLVESGGGLVQPGGSLRLSCAASGFSLSTGGVGVSWIRQAPGKGLEWIGEIYHSGSTYYSPSLKSRVTISRDNSKNTLYLQLNSLRAEDTAVYYCARYEYYYYDFDYWGQGTLVTVSSEPKSSDKTHTCPPCPAPELLGGPSVFLFPPKPKDTLMISRTPEVTCVVVDVSHEDPEVKFNWYVDGVEVHNAKTKPREEQYASTYRVVSVLTVLHQDWLNGKEYKCKVSNKALPAPIEKTISKAKGQPREPQVYTDPPSRDELTKNQVSLTCLVDGFYPSDIAVEWESNGQPENCYKTTPPVLDSDGSFFLYSKLTVDKSRWQQGNVFSCSVMHEALHNHYTQDSLSLSPGK
# notes: also called anti-HER2xCD28 BsAb; TY27566 (WT)
# B4: TY29109 (bispecific antibody, human IgG1, kappa, N297A)
# light: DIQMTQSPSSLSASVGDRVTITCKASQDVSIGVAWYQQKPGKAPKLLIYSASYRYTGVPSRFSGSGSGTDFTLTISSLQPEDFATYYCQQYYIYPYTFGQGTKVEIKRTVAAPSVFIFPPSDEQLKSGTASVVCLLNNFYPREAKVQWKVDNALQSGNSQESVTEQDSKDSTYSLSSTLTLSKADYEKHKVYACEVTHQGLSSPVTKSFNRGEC
# heavy: B3 heavy
# chain: EVQLVESGGGLVQPGGSLRLSCAASGFSLSTGGVGVSWIRQAPGKGLEWIGEIYHSGSTYYSPSLKSRVTISRDNSKNTLYLQLNSLRAEDTAVYYCARYEYYYYDFDYWGQGTLVTVSSGGGGSGGGGSGGGGSGGGGSDIQLTQSPSSLSASVGDRVTITCRASQSVDFHGISFLHWYQQKPGKAPKLLIYAASSLQSGVPSRFSGSGSGTDFTLTISSLQPEDFATYYCQQSYRSPRTFGQGTKVEIKEPKSSDKTHTCPPCPAPELLGGPSVFLFPPKPKDTLMISRTPEVTCVVVDVSHEDPEVKFNWYVDGVEVHNAKTKPREEQYASTYRVVSVLTVLHQDWLNGKEYKCKVSNKALPAPIEKTISKAKGQPREPQVYTDPPSRDELTKNQVSLTCLVDGFYPSDIAVEWESNGQPENCYKTTPPVLDSDGSFFLYSKLTVDKSRWQQGNVFSCSVMHEALHNHYTQDSLSLSPGK
# notes: anti-HER2 Fab x CD28 scFv WT (VH-VL)-Fc; also called TY29109 (WT)
# B5: TY29308 (bispecific antibody, human IgG1, kappa, N297A)
# light: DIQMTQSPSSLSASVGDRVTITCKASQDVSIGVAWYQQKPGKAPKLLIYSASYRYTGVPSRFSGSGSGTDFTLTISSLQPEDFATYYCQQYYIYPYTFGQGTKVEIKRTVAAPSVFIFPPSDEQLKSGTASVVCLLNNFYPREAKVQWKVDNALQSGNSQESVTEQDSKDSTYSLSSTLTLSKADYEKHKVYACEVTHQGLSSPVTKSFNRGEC
# heavy: B3 heavy
# chain: B4 chain with G32S, E52S, S62N, Y103G, D106A, H172Y, I174K, S238T, R240L
# notes: anti-HER2 Fab x CD28 scFv BC8230 (VH-VL)-Fc
# B6: TY29306 (bispecific antibody, human IgG1, kappa, N297A)
# light: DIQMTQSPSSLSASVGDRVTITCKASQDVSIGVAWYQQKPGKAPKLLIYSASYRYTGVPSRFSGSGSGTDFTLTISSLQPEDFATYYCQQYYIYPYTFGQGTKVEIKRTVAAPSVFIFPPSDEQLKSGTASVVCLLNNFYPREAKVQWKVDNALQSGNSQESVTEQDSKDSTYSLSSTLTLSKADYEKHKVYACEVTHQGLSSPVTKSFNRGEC
# heavy: B3 heavy
# chain: B4 chain with E52S, S62N, Y103D, D106A, H172Y, I174K, Q199E, R240P
# notes: anti-HER2 Fab x CD28 scFv BC8227 (VH-VL)-Fc
# B7: TY29314 (bispecific antibody, human IgG1, kappa, N297A)
# light: not shown
# heavy: B3 heavy
# chain: B4 chain with G32S, Y104S, D106A, I174K
# notes: anti-HER2 Fab x CD28 scFv BC8257 (VH-VL)-Fc
# B8: TY28656 (bispecific antibody, human IgG1, kappa, N297A)
# light: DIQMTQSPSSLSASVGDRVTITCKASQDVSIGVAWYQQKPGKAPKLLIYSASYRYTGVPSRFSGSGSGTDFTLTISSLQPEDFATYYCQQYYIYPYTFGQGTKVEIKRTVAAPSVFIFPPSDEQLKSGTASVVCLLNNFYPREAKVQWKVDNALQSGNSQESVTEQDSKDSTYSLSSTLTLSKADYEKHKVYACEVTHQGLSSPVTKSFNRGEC
# heavy: B3 heavy
# chain: B3 chain with H32Y, I34K, S98T, G163S, S168G, Y191N, S193N, Y234G, D237A, F238L
# notes: anti-HER2 Fab x CD28 scFv BC8235 (VL-VH)-Fc
# B9: TY28654 (bispecific antibody, human IgG1, kappa, N297A)
# light: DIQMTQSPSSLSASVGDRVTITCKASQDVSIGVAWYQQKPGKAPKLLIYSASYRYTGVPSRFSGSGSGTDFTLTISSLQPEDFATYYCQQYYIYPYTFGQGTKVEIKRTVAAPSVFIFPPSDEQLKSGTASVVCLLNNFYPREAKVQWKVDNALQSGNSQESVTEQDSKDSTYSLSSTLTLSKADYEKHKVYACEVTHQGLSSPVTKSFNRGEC
# heavy: B3 heavy
# chain: B3 chain with H32Y, I34K, S98T, R100L, G163S, E183S, S193N, Y234G, D237A
# notes: anti-HER2 Fab x CD28 scFv BC8230 (VL-VH)-Fc
# B10: TY28655 (bispecific antibody, human IgG1, kappa, N297A)
# light: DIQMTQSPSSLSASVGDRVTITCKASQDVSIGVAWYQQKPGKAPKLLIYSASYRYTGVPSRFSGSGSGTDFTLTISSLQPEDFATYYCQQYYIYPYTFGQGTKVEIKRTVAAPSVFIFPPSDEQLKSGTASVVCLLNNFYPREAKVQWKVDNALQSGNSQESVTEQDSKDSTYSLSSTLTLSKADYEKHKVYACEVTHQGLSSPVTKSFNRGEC
# heavy: B3 heavy
# chain: B3 chain with H32Y, S98T, G163S, E183S, S193N, Y234D, D237A
# notes: anti-HER2 Fab x CD28 scFv BC8233 (VL-VH)-Fc
# B11: TY28653 (bispecific antibody, human IgG1, kappa, N297A)
# light: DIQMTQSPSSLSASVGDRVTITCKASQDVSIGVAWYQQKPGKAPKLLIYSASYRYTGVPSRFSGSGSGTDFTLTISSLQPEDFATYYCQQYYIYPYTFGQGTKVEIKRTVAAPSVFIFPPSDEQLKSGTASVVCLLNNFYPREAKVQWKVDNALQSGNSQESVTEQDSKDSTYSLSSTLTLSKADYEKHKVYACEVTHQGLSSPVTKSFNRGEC
# heavy: B3 heavy
# chain: B3 chain with H32Y, S98T, R100P, E183S, S193N, Y234G, D237A, F238L
# notes: anti-HER2 Fab x CD28 scFv BC8228 (VL-VH)-Fc
# B12: TY28661 (bispecific antibody, human IgG1, kappa, N297A)
# light: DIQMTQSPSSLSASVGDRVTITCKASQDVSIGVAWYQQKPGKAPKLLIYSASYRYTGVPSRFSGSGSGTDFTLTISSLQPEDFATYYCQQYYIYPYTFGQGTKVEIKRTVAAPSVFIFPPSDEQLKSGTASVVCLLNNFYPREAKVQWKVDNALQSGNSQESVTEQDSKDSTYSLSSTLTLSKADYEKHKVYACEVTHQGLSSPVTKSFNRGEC
# heavy: B3 heavy
# chain: B3 chain with H32Y, Q59E, S98T, R100L, E183S, Y234D, D237A
# notes: anti-HER2 Fab x CD28 scFv BC8263 (VL-VH)-Fc
# B13: TY29310 (bispecific antibody, human IgG1, kappa, N297A)
# light: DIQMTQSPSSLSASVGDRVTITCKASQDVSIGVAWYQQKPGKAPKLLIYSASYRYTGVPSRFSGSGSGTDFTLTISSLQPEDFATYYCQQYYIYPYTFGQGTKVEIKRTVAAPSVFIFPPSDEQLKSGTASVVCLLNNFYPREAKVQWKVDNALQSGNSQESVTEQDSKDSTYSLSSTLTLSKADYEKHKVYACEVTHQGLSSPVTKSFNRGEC
# heavy: B3 heavy
# chain: B4 chain with G32S, S37G, Y60N, S62N, Y103G, D106A, F107L, H172Y, I174K, S238T
# notes: anti-HER2 Fab x CD28 scFv BC8235 (VH-VL)-Fc
# B14: TY29312 (bispecific antibody, human IgG1, kappa, N297A)
# light: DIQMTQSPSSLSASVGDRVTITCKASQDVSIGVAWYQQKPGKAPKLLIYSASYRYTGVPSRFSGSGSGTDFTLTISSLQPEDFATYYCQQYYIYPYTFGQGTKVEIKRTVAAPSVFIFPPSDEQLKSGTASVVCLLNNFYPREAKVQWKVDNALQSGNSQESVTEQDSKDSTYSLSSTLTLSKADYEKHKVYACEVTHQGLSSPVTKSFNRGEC
# heavy: B3 heavy
# chain: B4 chain with G32S, S37G, E52S, S62N, Y103D, H172Y, I174K, Q199E, R240L
# notes: anti-HER2 Fab x CD28 scFv BC8240 (VH-VL)-Fc
# B15: TY28652 (bispecific antibody, human IgG1, kappa, N297A)
# light: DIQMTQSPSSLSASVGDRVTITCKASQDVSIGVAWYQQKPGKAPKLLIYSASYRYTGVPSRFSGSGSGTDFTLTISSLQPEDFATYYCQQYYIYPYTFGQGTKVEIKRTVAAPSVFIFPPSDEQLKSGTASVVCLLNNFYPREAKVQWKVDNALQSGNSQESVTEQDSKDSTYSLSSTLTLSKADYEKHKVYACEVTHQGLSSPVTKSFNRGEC
# heavy: B3 heavy
# chain: B3 chain with H32Y, I34K, Q59E, R100P, E183S, S193N, Y234D, D237A
# notes: anti-HER2 Fab x CD28 scFv BC8227 (VL-VH)-Fc
# B16: TY29307 (bispecific antibody, human IgG1, kappa, N297A)
# light: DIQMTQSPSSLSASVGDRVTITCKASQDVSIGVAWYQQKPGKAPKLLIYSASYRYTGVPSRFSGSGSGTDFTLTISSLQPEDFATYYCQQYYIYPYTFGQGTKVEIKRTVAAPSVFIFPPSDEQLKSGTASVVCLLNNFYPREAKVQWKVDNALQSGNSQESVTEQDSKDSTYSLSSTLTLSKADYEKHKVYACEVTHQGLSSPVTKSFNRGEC
# heavy: B3 heavy
# chain: B4 chain with E52S, S62N, Y103G, D106A, F107L, H172Y, S238T, R240P
# notes: anti-HER2 Fab x CD28 scFv BC8228 (VH-VL)-Fc
# B17: TY28658 (bispecific antibody, human IgG1, kappa, N297A)
# light: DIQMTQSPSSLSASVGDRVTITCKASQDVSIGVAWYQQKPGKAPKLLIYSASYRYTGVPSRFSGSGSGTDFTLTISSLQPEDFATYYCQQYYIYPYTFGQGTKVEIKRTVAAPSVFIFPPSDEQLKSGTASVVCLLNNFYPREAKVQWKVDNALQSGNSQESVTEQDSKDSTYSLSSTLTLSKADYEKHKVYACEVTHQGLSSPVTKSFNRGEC
# heavy: B3 heavy
# chain: B3 chain with H32Y, I34K, Q59E, R100L, G163S, S168G, E183S, S193N, Y234D
# notes: anti-HER2 Fab x CD28 scFv BC8240 (VL-VH)-Fc
# B18: TY29315 (bispecific antibody, human IgG1, kappa, N297A)
# light: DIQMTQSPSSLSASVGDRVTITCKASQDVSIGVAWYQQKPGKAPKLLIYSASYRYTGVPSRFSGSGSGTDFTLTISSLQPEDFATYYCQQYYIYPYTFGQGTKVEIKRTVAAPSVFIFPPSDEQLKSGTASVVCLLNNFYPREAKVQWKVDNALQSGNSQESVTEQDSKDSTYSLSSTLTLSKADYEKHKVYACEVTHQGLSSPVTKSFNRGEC
# heavy: B3 heavy
# chain: B4 chain with E52S, Y103D, D106A, H172Y, Q199E, S238T, R240L
# notes: anti-HER2 Fab x CD28 scFv BC8263 (VH-VL)-Fc
# B19: TY28660 (bispecific antibody, human IgG1, kappa, N297A)
# light: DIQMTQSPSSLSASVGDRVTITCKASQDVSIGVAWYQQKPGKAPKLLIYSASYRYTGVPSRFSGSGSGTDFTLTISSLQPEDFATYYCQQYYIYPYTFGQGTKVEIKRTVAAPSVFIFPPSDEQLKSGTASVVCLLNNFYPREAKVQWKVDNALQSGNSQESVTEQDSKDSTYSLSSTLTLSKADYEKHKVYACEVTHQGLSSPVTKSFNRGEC
# heavy: B3 heavy
# chain: B3 chain with I34K, G163S, Y235S, D237A
# notes: anti-HER2 Fab x CD28 scFv BC8257 (VL-VH)-Fc
# B20: TY29311 (bispecific antibody, human IgG1, kappa, N297A)
# light: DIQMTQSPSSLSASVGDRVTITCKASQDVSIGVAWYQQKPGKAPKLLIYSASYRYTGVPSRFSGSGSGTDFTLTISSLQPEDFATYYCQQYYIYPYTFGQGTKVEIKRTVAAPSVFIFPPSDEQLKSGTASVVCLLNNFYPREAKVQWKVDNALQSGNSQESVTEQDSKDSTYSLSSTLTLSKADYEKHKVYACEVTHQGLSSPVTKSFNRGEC
# heavy: B3 heavy
# chain: B4 chain with S37G, S62N, Y103G, D106A, Q199E, S238T
# notes: anti-HER2 Fab x CD28 scFv BC8237 (VH-VL)-Fc
# B21: TY28657 (bispecific antibody, human IgG1, kappa, N297A)
# light: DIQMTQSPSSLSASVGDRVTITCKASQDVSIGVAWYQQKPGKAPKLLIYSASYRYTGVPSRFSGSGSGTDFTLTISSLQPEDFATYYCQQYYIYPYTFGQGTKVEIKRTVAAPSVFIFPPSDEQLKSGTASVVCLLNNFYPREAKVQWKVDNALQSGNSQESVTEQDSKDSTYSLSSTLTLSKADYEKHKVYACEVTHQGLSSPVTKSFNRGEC
# heavy: B3 heavy
# chain: B3 chain with Q59E, S98T, S168G, S193N, Y234G, D237A
# notes: anti-HER2 Fab x CD28 scFv BC8237 (VL-VH)-Fc
# B22: TY28659 (bispecific antibody, human IgG1, kappa, N297A)
# light: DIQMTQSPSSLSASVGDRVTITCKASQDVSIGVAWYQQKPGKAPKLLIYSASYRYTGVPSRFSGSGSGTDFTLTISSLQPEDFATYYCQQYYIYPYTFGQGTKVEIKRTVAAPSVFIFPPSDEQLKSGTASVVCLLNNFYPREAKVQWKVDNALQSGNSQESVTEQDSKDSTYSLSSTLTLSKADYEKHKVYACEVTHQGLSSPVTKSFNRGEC
# heavy: B3 heavy
# chain: B3 chain with G163S, S193N, Y234G, D237A
# notes: anti-HER2 Fab x CD28 scFv BC8242 (VL-VH)-Fc
# B23: TY29309 (bispecific antibody, human IgG1, kappa, N297A)
# light: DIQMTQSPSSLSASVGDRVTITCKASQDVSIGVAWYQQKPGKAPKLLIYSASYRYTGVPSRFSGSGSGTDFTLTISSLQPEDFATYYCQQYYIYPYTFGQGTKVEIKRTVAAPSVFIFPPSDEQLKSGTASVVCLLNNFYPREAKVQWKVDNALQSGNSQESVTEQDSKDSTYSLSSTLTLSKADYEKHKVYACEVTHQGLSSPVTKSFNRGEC
# heavy: B3 heavy
# chain: B4 chain with G32S, E52S, S62N, Y103D, D106A, H172Y, S238T
# notes: anti-HER2 Fab x CD28 scFv BC8233 (VH-VL)-Fc
# B24: TY29313 (bispecific antibody, human IgG1, kappa, N297A)
# light: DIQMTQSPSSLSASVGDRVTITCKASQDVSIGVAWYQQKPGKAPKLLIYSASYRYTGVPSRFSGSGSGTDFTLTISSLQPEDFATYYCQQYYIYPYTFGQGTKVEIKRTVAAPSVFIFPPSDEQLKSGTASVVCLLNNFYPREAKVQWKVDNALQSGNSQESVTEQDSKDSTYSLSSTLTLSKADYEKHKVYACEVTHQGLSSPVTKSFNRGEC
# heavy: B3 heavy
# chain: B4 chain with G32S, S62N, Y103G, D106A
# notes: anti-HER2 Fab x CD28 scFv BC8242 (VH-VL)-Fc
# B25: TY24854 (antibody, human IgG4 S228P, kappa, V domains shown)
# VH: EVQLVESGGGLVQPGGSLRLSCAASGYSITSGYHWGWIRQAPGKGLEWIGEIYHSGSTYYSPSLKSRVTISRDNSKNTLYLQLNSLRAEDTAVYYCARRRGDGYFDFWGQGTLVTVSS
# VL: DIQLTQSPSSLSASVGDRVTITCRASQSVDFLGISFLHWYQQKPGKAPKLLIYDASNRATGIPSRFSGSGSGTDFTLTISSLQPEDFATYYCQQSYRTPLTFGQGTKVEIKR
# notes: hIgG4/S241P
# B26: TY24871 (antibody, human IgG4 S228P, kappa, V domains shown)
# VH: QVQLVQSGAEVKKPGSSVKVSCKASGFTFSSYAIHWVRQAPGQGLEWIGSIYHSGSTYYSPSLKSRVTITADKSTSTAYMELSSLRSEDTAVYYCARDVYGSYALDVWGQGTLVTVSS
# VL: B25 VL with L32D, N57S, R58L, A59E, T60S, I62V, T98S, L100I
# notes: hIgG4/S241P
# Tests used:
# [1] = target: T1, His-tagged human CD28 protein (human, UniProt P10747 19-152); test: Octet BLI, mAb captured;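 further: Anti-human Fc biosensors captured the antibodies, then His-tagged protein analytes at 100 nM associated for 300 s and dissociated for 300 s, fitted by a 1:1 Langmuir model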
# T1 construct: not shown: His tag
# [2] = target: T2, His-tagged human CTLA4 protein (human, UniProt P16410 36-161, limits assumed); test: Octet BLI, mAb captured;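 further: Anti-human Fc biosensors captured the antibodies, then His-tagged protein analytes at 100 nM associated for 300 s and dissociated for 300 s, fitted by a 1:1 Langmuir model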
# T2 construct: not shown: His tag
# Human CD28 on cells = target: T3, Human CD28 on cells (human, UniProt P10747 19-220); test: flow cytometry, Jurkat cells
# T3 construct: Jurkat E6-1 cells, primary human T cells, or transfected HEK293F cells; also called CD28 on Jurkat cells; CD28 on human CD3+ T cells
# Experimental: Next, the cells were washed twice with DPBS and further incubated with a APC-anti-human IgG Fc secondary antibody (1 μg/mL, 100 μL/well, Biolegend) for 30 minutes at 4° C. Finally, the cells were washed twice with DPBS and suspended in FACS buffer for flow cytometry analysis. For analysis, the Mean Fluorescence Intensity (MFI) values versus concentrations were plotted using FlowJo 10 software (FlowJo LLC) and the data were further fitted with four-parameter non-linear regression to obtain EC₅₀ values by GraphPad Prism version 7 for Windows, GraphPad Software, La Jolla California USA, www.graphpad.com.
# [3] = target: Human CD28 (ELISAs of Examples 4 and 13) (human, UniProt P10747 19-152, limits assumed); test: ELISA
# T2 sequence (P16410 36-161 limits assumed): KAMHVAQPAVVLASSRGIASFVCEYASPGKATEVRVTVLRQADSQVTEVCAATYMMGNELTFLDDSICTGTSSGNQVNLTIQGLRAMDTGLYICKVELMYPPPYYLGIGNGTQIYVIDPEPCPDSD
Binder,EC50 [3] [nM],further results
B1,–,Kd [1]: 5.25 nM; koff [1]: 0.000662 s⁻¹; kon [1]: 126000 M⁻¹ s⁻¹; Kd [2]: 2.35 nM; koff [2]: 0.00262 s⁻¹; kon [2]: 1.11e+06 M⁻¹ s⁻¹; EC50 (Human CD28 on cells): 0.38 nM
B2,–,Kd [1]: 4.41 nM; koff [1]: 0.000416 s⁻¹; kon [1]: 94200 M⁻¹ s⁻¹; Kd [2]: 5.5 nM; koff [2]: 0.00284 s⁻¹; kon [2]: 517000 M⁻¹ s⁻¹; EC50 (Human CD28 on cells): 0.54 nM
B3,3.89,–
B4,30.3,–
B5,417,–
B6,9.27,–
B7,27.5,–
B8,128,–
B9,68.4,–
B10,8.14,–
B11,7.3,–
B12,52.6,–
B13,349,–
B14,624,–
B15,3.68,–
B16,27.8,–
B17,78,–
B18,291,–
B19,3.77,–
B20,91.3,–
B21,5.29,–
B22,0.954,–
B23,27.7,–
B24,6.97,–
B25,–,Kd [1]: 5.43 nM; koff [1]: 0.000353 s⁻¹; kon [1]: 64900 M⁻¹ s⁻¹; EC50 (Human CD28 on cells): 0.6 nM
B26,–,Kd [1]: 4.99 nM; koff [1]: 0.00035 s⁻¹; kon [1]: 70100 M⁻¹ s⁻¹; EC50 (Human CD28 on cells): 0.89 nM
